The values that follow come from patent publication US20160096891A1 (AstraZeneca / MedImmune, published 2016).

Usually Kd stands for a measure of binding affinity in units of concentration. Low readings indicate higher affinity, high ones lower affinity.

Assay [1] addresses T1, human B7-H5 expressed on cells (CHO transfectants) (human, UniProt Q9UM44 23-414).
T1 construct: also called B7-H7; HHLA2
T1 sequence: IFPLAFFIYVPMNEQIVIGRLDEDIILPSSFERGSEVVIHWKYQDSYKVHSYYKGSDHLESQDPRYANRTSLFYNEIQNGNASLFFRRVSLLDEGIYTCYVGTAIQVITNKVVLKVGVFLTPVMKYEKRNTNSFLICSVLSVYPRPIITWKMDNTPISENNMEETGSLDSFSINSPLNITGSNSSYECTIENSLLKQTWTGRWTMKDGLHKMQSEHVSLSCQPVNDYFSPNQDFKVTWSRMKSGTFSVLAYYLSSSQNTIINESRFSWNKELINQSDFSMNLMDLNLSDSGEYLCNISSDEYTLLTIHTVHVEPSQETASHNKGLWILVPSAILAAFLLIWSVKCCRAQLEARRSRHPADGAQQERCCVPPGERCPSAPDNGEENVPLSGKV
Kind of assay: flow cytometry on CHO transfectants expressing human B7-H5.

Assay [2] has as its target T2, human B7-H5 expressed on cells (CHO transfectants) (UniProt Q9UM44 23-414).
T2 chain: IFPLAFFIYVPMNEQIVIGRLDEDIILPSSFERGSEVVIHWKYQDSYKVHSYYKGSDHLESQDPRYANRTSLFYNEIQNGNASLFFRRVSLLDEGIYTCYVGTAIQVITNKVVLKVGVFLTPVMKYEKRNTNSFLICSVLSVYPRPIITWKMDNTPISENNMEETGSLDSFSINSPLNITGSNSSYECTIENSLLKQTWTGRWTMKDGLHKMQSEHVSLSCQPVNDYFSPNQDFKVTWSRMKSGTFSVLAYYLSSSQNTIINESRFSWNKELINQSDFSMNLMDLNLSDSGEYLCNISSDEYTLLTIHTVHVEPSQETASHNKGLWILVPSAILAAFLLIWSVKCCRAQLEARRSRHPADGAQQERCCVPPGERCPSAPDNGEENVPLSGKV
Kind of assay: FACS binding to CHO cells. On the technique in general: Flow cytometry measures light scatter and fluorescence of single cells or particles in a stream.

Assay [3] concerns the target T1, human B7-H5 expressed on cells (CHO …). Kind of assay: flow cytometry on CHO cells expressing human B7-H5 (figure legend). The method, then:
Human B7-H5 FL CHO transfectants were pre-incubated with control supernatant (Panel A) or recombinant chimeric 2D3 (Panel B) and 18C3 supernatants (Panel C), and subsequently stained with biotinylated CD28HhIg fusion protein.
The human B7-H5-binding antibodies of the present invention (antibodies 2D3 and 18C3) were recombinantly converted to a human IgG4P isotype from their native hamster isotype. CHO transfectants that express human B7-H5 were then incubated in the presence of the recombinant antibodies. […] FIG. 15 compares the affinities of antibodies 2D3 and 18C3 for binding to human B7-H5 as expressed on the surface of CHO cells.

B1: anti-human B7-H5 antibody 2D3 (hybridoma clone 2D3) (antibody, V domains shown)
VH: QVQLQQSGAELVKPGASVKLSCKASGYTFTSHDINWVRQRPELGLEWIGWIFPGDGSTKFNEKFKGKATLTTDKSSSTAYIQLSRLTSEDSAVYFCARNSFYSMDYWGQGTSVTVSS
VL: DIVMSQSPSSLAVSAGEKVTMSCKSSQSLLNSRTRKNQLAWYQQKPGQSPKLLIYWAFIRESGVPDRFTGSGSGTDFTLTISSVQAEDLAVYYCKQSYNLRTFGGGTKLEIK
notes: constant regions are not; also called Anti-Human B7-H5 Clone 2D3; 2D3 mAb
For B1, the binding result in assay [1] is recorded as “binds”. Moreover, the Kd in assay [2] was around 2.5 nM.

B2: recombinant anti-human B7-H5 chimeric antibody 2D3, human IgG4P isotype (antibody, V domains shown)
VH: QVQLQQSGAELVKPGASVKLSCKASGYTFTSHDINWVRQRPELGLEWIGWIFPGDGSTKFNEKFKGKATLTTDKSSSTAYIQLSRLTSEDSAVYFCARNSFYSMDYWGQGTSVTVSS
VL: DIVMSQSPSSLAVSAGEKVTMSCKSSQSLLNSRTRKNQLAWYQQKPGQSPKLLIYWAFIRESGVPDRFTGSGSGTDFTLTISSVQAEDLAVYYCKQSYNLRTFGGGTKLEIK
notes: also called recombinant chimeric 2D3; human IgG4P derivative of 2D3
Turning to B2, the binding result in assay [3] was “binds”.

B3: recombinant anti-human B7-H5 chimeric antibody 18C3, human IgG4P isotype (antibody, V domains shown)
VH: QVQLQQSGAELVKPGASVKLSCKASGYTFTSHDINWVRQRPEQGLEWIGWIFPGDGSTKFNEKFKGKATLTTDKSSSTAYIQLSRLTSEDSAVYFCARNSFYSMDYWGQGTSVTVSS
VL: DIVMSQSPSSLAVSAGEKVTMSCKSSQSLLNSRTRKNQLAWYQQKPGQSPKLLIYWASTRESGVPDRFTGSGSGTDFTLTISSVQAEDLAVYYCKQSYNLRTFGGGTKLEIK
notes: also called recombinant chimeric 18C3; human IgG4P derivative of 18C3
On to B3, for which, in assay [3], the binding result was “binds”.

B4: anti-human B7-H5 antibody 18C3 (hybridoma clone 18C3) (antibody, V domains shown)
VH: QVQLQQSGAELVKPGASVKLSCKASGYTFTSHDINWVRQRPEQGLEWIGWIFPGDGSTKFNEKFKGKATLTTDKSSSTAYIQLSRLTSEDSAVYFCARNSFYSMDYWGQGTSVTVSS
VL: DIVMSQSPSSLAVSAGEKVTMSCKSSQSLLNSRTRKNQLAWYQQKPGQSPKLLIYWASTRESGVPDRFTGSGSGTDFTLTISSVQAEDLAVYYCKQSYNLRTFGGGTKLEIK
notes: constant regions are not; also called Anti-Human B7-H5 Clone 18C3
As for B4, in assay [1], the binding result was “binds”. This molecule also registered a Kd in assay [2] of around 3.8 nM.
